The data set has as its target T1, PhaR (Ralstonia eutropha H16 (Cupriavidus necator)) (UniProt Q0KBP6).
T1 sequence: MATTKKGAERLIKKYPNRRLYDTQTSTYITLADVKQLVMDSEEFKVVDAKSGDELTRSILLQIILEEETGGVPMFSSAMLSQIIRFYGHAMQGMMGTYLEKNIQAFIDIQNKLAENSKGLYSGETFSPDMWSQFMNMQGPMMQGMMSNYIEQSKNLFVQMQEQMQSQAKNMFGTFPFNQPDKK
The experiment in a line: EMSA. The note with it: EMSA: 0-250 ng PhaR, ~75 ng FAM-DNA, 5 uL master mix (1.75 uL 10x TBE, 0.25 uL 10 mg/mL herring sperm DNA, 3 uL DNA), 30 min at 37 C, 7.5% native PAGE.
Turning to “ATCGAATTCACGATGCACTTTTATTGTCCTGTTTTAAAGACTTTTTGGGTATATACCTAGGGATCAAATTAGAGGAAACCCTCTAGGATTCGCACTCGGATGCTGCGCTGCAGGATTGGTGGCGCTGTCAATCCGGAAGCCAAACCGAAGCGGATTCACGTTGCAATCTGTTGCGCGAATCCGTTCGATCAATCCACAG (double strand) [F2 (BS2, phaP3)]”, the binding result is “binds more weakly”.
“ATCGAATTCTGTATTCAGAGATCCGTTCCAAGCGTCTGGGGTGAAGTGCGCCCTACACATGTCATGCACTGCAACATTTCTGCGTAAGCACATGTAAATTTAGAGACGTACGATGCACTTTTATTGTCCTGTTTTAAAGACTTTTTGGGTATATACCTAGGGATCAAATTAGAGGAAACCCTCTAGGATTCGCACTCGGATGCTGCGCTGCAGGATTGGTGGCGCTGTCAATCCGGAAGCCAAACCGAAGCGGATTCACGTTGCAATCTGTTGCGCGAATCCGTTCGATCAATCCACAG (double strand) [F4 (BS1+BS2, phaP3)]”: the binding result is “binds”.
The entry for “GGCGCTGTCAATCCGGAAGCCAAACCGAAGCGGATTCACGTTGCAATCTGTTGCGCGAATCCGTTCGATCAATCCACAGGAGATTTTGCATGTCCCCTTTTATGCCCGAGCAATTTGCTGCAGTGCAAAAGTCCAGTCTGAACCAACTGTTCGCGCTGACGAACATGGCTTTTGACGGCGGA (double strand) [F3 (BS3, phaP3)]” is “binds more weakly”; for “ATCGAATTCTGTATTCAGAGATCCGTTCCAAGCGTCTGGGGTGAAGTGCGCCCTACACATGTCATGCACTGCAACATTTCTGCGTAAGCACATGTAAATTTAGAGACGTACGATGCACTTTTATTGTCCTGTTTTAAAGACTTTTTGGGTATATACCTAGGGATCAAATTAGAGGAAACCCTCTAGGATTCGCACTCGGATGCT (double strand) [F1 (BS1, phaP3)]” it is “binds”.

Source of the values: PMC12849132.
